Experimental data published in PMC5854381, “Dynamics of Scabin toxin. A proposal for the binding mode of the DNA substrate”.

How the values were obtained:
[1] = tested on: NC(=O)c1ccc[n+]([C@@H]2O[C@H](COP(=O)(O)OP(=O)(O)OC[C@H]3O[C@@H](n4cnc5c4ncn4ccnc54)[C@H](O)[C@@H]3O)[C@@H](O)[C@H]2O)c1; test: purified protein; conditions: pH 7.9
[2] = molecular target: Scabin WT (Streptomyces scabies, UniProt C9Z6T8 26-200); test: fluorescence anisotropy; no NAD+ mentioned; text labels this WT value N110A [sic]; Anisotropy: 5 uM Cy3-dsDNA, 25 mM Tris-HCl pH 8.2, 100 mM NaCl, 22 C; conditions: protein: recombinant; label: 5' Cy3 on strand 1; blunt

| Molecule | Km [1] [µM] | Kd [2] [µM] |
| --- | --- | --- |
| (Streptomyces scabiei 87.22) | 68 ± 3 | – |
| Cy3-dsDNA 21 bp (dsDNA) DNA 1: GGAAGAGAGAGAGAAAGAGAG DNA 2: CTCTCTTTCTCTCTCTCTTCC | – | 51 ± 4 |
